Numbered stars: 1 amine (or outer) side, 2 acyl side, 3 side chain; on linkers, the order of the positions; unused ones are H or OH. Square brackets hold non-standard residues; d marks the D form. Side chains are listed from the residue outwards. Ends that are not written are not given here. * marks the point of attachment. C18 diacid = O=C(O)CCCCCCCCCCCCCCCCC(=O)*; γGlu = O=C(O)[C@H](CCC(=O)[*:2])N[*:1]; AEEA = NCCOCCOCC(=O)O; Aib = CC(C)(N)C(=O)O
T1: human GIP receptor (human, UniProt P48546 22-466)
T1 construct: whole, on cells; also called hGIPR; hGIP-R
T1 sequence (looked up): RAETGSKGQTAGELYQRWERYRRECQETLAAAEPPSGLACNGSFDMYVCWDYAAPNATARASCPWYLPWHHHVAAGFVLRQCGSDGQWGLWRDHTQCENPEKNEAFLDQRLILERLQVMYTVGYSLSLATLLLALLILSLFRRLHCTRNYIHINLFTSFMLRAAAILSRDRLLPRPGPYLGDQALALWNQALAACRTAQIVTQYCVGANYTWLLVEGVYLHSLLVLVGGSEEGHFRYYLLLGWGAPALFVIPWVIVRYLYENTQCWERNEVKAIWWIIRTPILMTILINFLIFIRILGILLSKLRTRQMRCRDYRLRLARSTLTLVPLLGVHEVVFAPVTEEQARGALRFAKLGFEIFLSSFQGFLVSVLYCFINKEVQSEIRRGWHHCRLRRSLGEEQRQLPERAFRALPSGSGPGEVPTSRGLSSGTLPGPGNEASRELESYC


Legend:
human GLP-1 receptor = target: T2, human GLP-1 receptor (human, UniProt P43220 24-463); test: [125I]-GLP-1 competition SPA, hGLP-1R membranes
T2 construct: whole, on cells; also called hGLP-1R; hGLP1R
Summary of the method: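 Competition binding in 25 mM HEPES pH 7.4, 2.5 mM CaCl₂, 1 mM MgCl₂, 0.1% bacitracin, 0.003% TWEEN-20, EDTA-free protease inhibitors. IC₅₀ from four-parameter nonlinear fit; Kᵢ given as geometric mean ± SEM, n = independent replicates on different days.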

human GIP receptor = target: T1, human GIP receptor; test: [125I]-GIP competition SPA, hGIPR membranes
human glucagon receptor = target: T3, human glucagon receptor (human, UniProt P47871 26-477); test: [125I]-Gcg competition SPA, hGcgR membranes
T3 construct: whole, on cells; also called hGcgR; GcgR
T3 sequence (P47871 26-477): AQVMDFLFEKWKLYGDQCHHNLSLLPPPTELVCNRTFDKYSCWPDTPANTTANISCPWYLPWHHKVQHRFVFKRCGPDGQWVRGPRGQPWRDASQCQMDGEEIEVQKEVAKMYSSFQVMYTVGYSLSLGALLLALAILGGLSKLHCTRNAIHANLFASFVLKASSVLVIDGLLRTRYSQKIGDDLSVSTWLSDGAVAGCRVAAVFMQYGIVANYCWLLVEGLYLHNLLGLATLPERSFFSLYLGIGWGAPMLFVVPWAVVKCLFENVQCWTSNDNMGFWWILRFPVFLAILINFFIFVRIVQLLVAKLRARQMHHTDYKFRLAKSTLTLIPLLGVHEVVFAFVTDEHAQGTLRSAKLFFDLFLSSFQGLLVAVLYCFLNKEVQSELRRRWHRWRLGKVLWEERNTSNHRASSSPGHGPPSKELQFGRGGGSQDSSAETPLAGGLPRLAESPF

Binder | Ki (human GLP-1 receptor) [nM] | Ki (human GIP receptor) [nM] | Ki (human glucagon receptor) [nM]
YXEGTFTSDYSIXLDKKAQXAFIEYLIEGGPSSG (Aib2; αMeL13; K17((2-[2-(2-Amino-ethoxy)-ethoxy]-acetyl)2-(γ-Glu)-CO-(CH2)16-CO2H); Aib20; C-terminal NH2) [Example 300] | 2.13 | 0.0504 | 251
YXEGTXTSDYSILLDKKAQXAFIEYLIEGGPSSG (Aib2; αMeF6; K17((2-[2-(2-Amino-ethoxy)-ethoxy]-acetyl)2-(γ-Glu)-CO-(CH2)16-CO2H); Aib20; C-terminal NH2, also called GG-650) [Example 301] | 0.875 | 0.0273 | 44.4
YXEGTXTSDYSILLDKKAQXAFIEYLIEGGPSSG (Aib2; αMeF(2F)6; K17((2-[2-(2-Amino-ethoxy)-ethoxy]-acetyl)2-(γ-Glu)-CO-(CH2)16-CO2H); Aib20; C-terminal NH2) [Example 302] | 0.617 | 0.0289 | 18.5
YXEGTFTSDYSIXLDKKAQXAFIEYLIAGGPSSG (Aib2; αMeL13; K17((2-[2-(2-Amino-ethoxy)-ethoxy]-acetyl)2-(γ-Glu)-CO-(CH2)16-CO2H); Aib20; C-terminal NH2) [Example 305] | 0.83 | 0.025 | 352
YXEGTXTSDYSILLDKKAQXEFIEYLIAGGPSSG (Aib2; αMeF6; K17((2-[2-(2-Amino-ethoxy)-ethoxy]-acetyl)2-(γ-Glu)-CO-(CH2)16-CO2H); Aib20; C-terminal NH2) [Example 310] | 1.7 | 0.0315 | 174
YXEGTXTSDYSILLDKKAQXAFIEYLIAGGPSSG (Aib2; αMeF6; K17((2-[2-(2-Amino-ethoxy)-ethoxy]-acetyl)2-(γ-Glu)-CO-(CH2)16-CO2H); Aib20; C-terminal NH2) [Example 309] | 1.04 | 0.0264 | 64.1
YXEGTXTSDYSILLDKKAQXEFIEYLIEGGPSSG (Aib2; αMeF(2F)6; K17((2-[2-(2-Amino-ethoxy)-ethoxy]-acetyl)2-(γ-Glu)-CO-(CH2)16-CO2H); Aib20; C-terminal NH2) [Example 312] | 1.63 | 0.0348 | 106
YXEGTXTSDYSILLDEKAQXAFIEYLIEGGPSSG (Aib2; αMeF(2F)6; K17((2-[2-(2-Amino-ethoxy)-ethoxy]-acetyl)2-(γ-Glu)-CO-(CH2)16-CO2H); Aib20; C-terminal NH2) [Example 311] | 11.5 | 0.0497 | 115
YXEGTXTSDYSILLDKKAQXEFIEYLIEGGPSSG (Aib2; αMeF6; K17((2-[2-(2-Amino-ethoxy)-ethoxy]-acetyl)2-(γ-Glu)-CO-(CH2)16-CO2H); Aib20; C-terminal NH2) [Example 308] | 1.01 | 0.0288 | 94.2
YXEGTXTSDYSILLDEKAQXAFIEYLIEGGPSSG (Aib2; αMeF6; K17((2-[2-(2-Amino-ethoxy)-ethoxy]-acetyl)2-(γ-Glu)-CO-(CH2)16-CO2H); Aib20; C-terminal NH2) [Example 307] | 5.1 | 0.0773 | 117
YXEGTXTSDYSILLDKKAQXAFIEYLIAGGPSSG (Aib2; αMeF(2F)6; K17((2-[2-(2-Amino-ethoxy)-ethoxy]-acetyl)2-(γ-Glu)-CO-(CH2)16-CO2H); Aib20; C-terminal NH2) [Example 313] | 0.815 | 0.0261 | 27.6
YXEGTXTSDYSILLDKKAQXEFIEYLIAGGPSSG (Aib2; αMeF(2F)6; K17((2-[2-(2-Amino-ethoxy)-ethoxy]-acetyl)2-(γ-Glu)-CO-(CH2)16-CO2H); Aib20; C-terminal NH2) [Example 314] | 0.717 | 0.027 | 116
YXEGTFTSDYSIXLDEKAQXAFIEYLIEGGPSSG (Aib2; αMeL13; K17((2-[2-(2-Amino-ethoxy)-ethoxy]-acetyl)2-(γ-Glu)-CO-(CH2)16-CO2H); Aib20; C-terminal NH2) [Example 303] | 3.69 | 0.058 | 502
Y[Aib]EGTFTSDYSILLDKK([AEEA-AEEA-γGlu-C18 diacid])AQ[Aib]AFIEYLIAGGPSSGAPPPS-NH2 (N-terminus assumed; SMILES CC[C@H](C)[C@H](NC(=O)[C@H](CC(C)C)NC(=O)[C@H](Cc1ccc(O)cc1)NC(=O)[C@H](CCC(=O)O)NC(=O)[C@@H](NC(=O)[C@H](Cc1ccccc1)NC(=O)[C@H](C)NC(=O)C(C)(C)NC(=O)[C@H](CCC(N)=O)NC(=O)[C@H](C)NC(=O)[C@H](CCCCNC(=O)COCCOCCNC(=O)COCCOCCNC(=O)CC[C@H](NC(=O)CCCCCCCCCCCCCCCCC(=O)O)C(=O)O)NC(=O)[C@H](CCCCN)NC(=O)[C@H](CC(=O)O)NC(=O)[C@H](CC(C)C)NC(=O)[C@H](CC(C)C)NC(=O)[C@@H](NC(=O)[C@H](CO)NC(=O)[C@H](Cc1ccc(O)cc1)NC(=O)[C@H](CC(=O)O)NC(=O)[C@H](CO)NC(=O)[C@@H](NC(=O)[C@H](Cc1ccccc1)NC(=O)[C@@H](NC(=O)CNC(=O)[C@H](CCC(=O)O)NC(=O)C(C)(C)NC(=O)[C@@H](N)Cc1ccc(O)cc1)[C@@H](C)O)[C@@H](C)O)[C@@H](C)CC)[C@@H](C)CC)C(=O)N[C@@H](C)C(=O)NCC(=O)NCC(=O)N1CCC[C@H]1C(=O)N[C@@H](CO)C(=O)N[C@@H](CO)C(=O)NCC(=O)N[C@@H](C)C(=O)N1CCC[C@H]1C(=O)N1CCC[C@H]1C(=O)N1CCC[C@H]1C(=O)N[C@@H](CO)C(N)=O) [Example 316] | 0.957 | 0.0418 | 654
Y[Aib]EGTFTSDYSILLDKK([AEEA-AEEA-γGlu-C18 diacid])AQQAFIEYLIEGG-NH2 (N-terminus assumed; SMILES CC[C@H](C)[C@H](NC(=O)[C@H](CC(C)C)NC(=O)[C@H](Cc1ccc(O)cc1)NC(=O)[C@H](CCC(=O)O)NC(=O)[C@@H](NC(=O)[C@H](Cc1ccccc1)NC(=O)[C@H](C)NC(=O)[C@H](CCC(N)=O)NC(=O)[C@H](CCC(N)=O)NC(=O)[C@H](C)NC(=O)[C@H](CCCCNC(=O)COCCOCCNC(=O)COCCOCCNC(=O)CC[C@H](NC(=O)CCCCCCCCCCCCCCCCC(=O)O)C(=O)O)NC(=O)[C@H](CCCCN)NC(=O)[C@H](CC(=O)O)NC(=O)[C@H](CC(C)C)NC(=O)[C@H](CC(C)C)NC(=O)[C@@H](NC(=O)[C@H](CO)NC(=O)[C@H](Cc1ccc(O)cc1)NC(=O)[C@H](CC(=O)O)NC(=O)[C@H](CO)NC(=O)[C@@H](NC(=O)[C@H](Cc1ccccc1)NC(=O)[C@@H](NC(=O)CNC(=O)[C@H](CCC(=O)O)NC(=O)C(C)(C)NC(=O)[C@@H](N)Cc1ccc(O)cc1)[C@@H](C)O)[C@@H](C)O)[C@@H](C)CC)[C@@H](C)CC)C(=O)N[C@@H](CCC(=O)O)C(=O)NCC(=O)NCC(N)=O) [Example 294] | 2.92 | 0.205 | 629

Reference: patent US20200024322A1 (Eli Lilly, published 2020)
